Measurements taken from paper PMC2156102.

Tests used:
[1] = molecular target: LexABD-Rac1G12V (fusion of the LexA DNA binding domain with Drosophila Rac1 G12V) (Drosophila) (UniProt P40792); experiment: two-hybrid; same fusions; quantification of ß-galactosidase activity in liquid assays on total protein extracts, three measurements
[2] = molecular target: LexABD-Rac1G12V (fusion of the LexA DNA binding domain with Drosophila Rac1 G12V) (UniProt P40792); experiment: yeast two-hybrid, ß-galactosidase activity in total protein extracts; conditions: parent: est. 6.4; read off a plot

Substance	response (ß-Galactosidase units) [2]	fold lower interaction (ß-galactosidase activity) than wild-type LbGAP [1]	other results
GAL4AD-LbGAP (fusion of the GAL4 activation domain with LbGAP) (natural protein)			ß-galactosidase activity relative to that of LbGAP with Rac2G12V [1]: 2 fold
GAL4AD-LbGAP (fusion of the GAL4 activation domain with LbGAP) K111A	0.38		
GAL4AD-LbGAP (fusion of the GAL4 activation domain with LbGAP) R115A	0.34		
LbGAPR74A (GAL4 activation domain fusion) (natural protein)		3 fold	
LbGAPS190A (GAL4 activation domain fusion) (natural protein)		3 fold	
